The text below walks through data of patent US20160272977, “DNMT Inhibitors” (New England Biolabs, Inc., published 2016).

In series [1] the target is T1, DNMT1 full-length (Homo sapiens, UniProt P26358 SEQ:1-1616). The series is described as follows: inhibition; competitive vs hemimethylated DNA. The note with it: tags: baculovirus Sf9.
Series [2] deals with T1, DNMT1 full-length. Kind of series: inhibition; competitive vs hemimethylated DNA, 37 C. The following applies: tags: baculovirus Sf9.
Series [3] addresses T2, GST-DNMT1 fragment 4 (Homo sapiens, UniProt P26358 SEQ:1081-1408).
T2 chain: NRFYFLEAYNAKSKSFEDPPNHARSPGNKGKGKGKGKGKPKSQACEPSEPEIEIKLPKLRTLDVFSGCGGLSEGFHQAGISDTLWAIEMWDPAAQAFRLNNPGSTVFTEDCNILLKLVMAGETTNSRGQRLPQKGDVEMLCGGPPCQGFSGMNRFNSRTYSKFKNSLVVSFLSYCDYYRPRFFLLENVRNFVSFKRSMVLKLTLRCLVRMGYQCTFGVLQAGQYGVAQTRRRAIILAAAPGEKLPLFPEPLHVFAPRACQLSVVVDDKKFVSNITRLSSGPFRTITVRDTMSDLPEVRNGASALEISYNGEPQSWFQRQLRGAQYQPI
The series is described as follows: pulldown; most efficient binder of the four. The following applies: tags: N-terminal GST (pGEX-5x-1); label: 5'-33P in pull-down; predicted to lack stem-loop. From the text: (§1) The resulting protein bands are shown in FIG. 1B; asterisks mark the positions of the GST-DNMT1 fusion proteins. GST-DNMT1 fragments were adjusted to the same protein concentration with 50% slurry sepharose beads. RNase inhibitor (New England Biolabs, Ipswich, Mass.) was applied to beads slurry at 40 U/mL immediate before use.
(§2) The GST-DNMT1 fragments exposed to a series of small RNA molecules are depicted in FIG. 1D. The RNA oligos were labelled at the 5′ end with [γ-33P]ATP (PerkinElmer, Waltham, Mass.) using T4 polynucleotide kinase (New England Biolabs, Ipswich, Mass.), and purified with Illustra® ProbeQuant® G-50 Micro Columns (GE Healthcare Life Sciences, Piscataway, N.J.) per the manufacturer's instructions. The binding assay was performed in 50 μL reaction volume containing 20 μL of GST-DNMT1 fragment beads, 5 μL of 5 μM labelled RNA oligo, 5 μL of 10×DNMT1 reaction buffer (New England Biolabs, Ipswich, Mass.) and 20 μL of RNase-free water. After incubation at 37° C. for 10 minutes, beads were washed twice and suspended in 200 μL of PBS. The radioactivity associated with the beads was analyzed by liquid scintillation counting using a Tri-Carb® 2900TR (PerkinElmer, Waltham, Mass.). The amount of RNA oligo bound to beads were calculated by normalizing the scintillation counts of beads to that of 1 pmol labelled RNA oligo.

For series [4], the target named is T2, GST-DNMT1 fragment 4. The series is described as follows: pulldown; greater than asCEBPα-1. The note with it: tags: N-terminal GST (pGEX-5x-1); label: 5'-33P in pull-down.
From the text: as §1, §2

In series [5] the target is T2, GST-DNMT1 fragment 4. Kind of series: pulldown; GST pull-down, 33P RNA, 37 C; lower than HPE variant. The following applies: tags: N-terminal GST (pGEX-5x-1); label: 5'-33P in pull-down; stem-loop.
From the text: as §1, §2

In series [6] the target is T1, DNMT1 full-length. The series is described as follows: inhibition; competitive vs hemimethylated DNA. The following applies: tags: baculovirus Sf9. The procedure:
Single point biochemistry assays were performed by incubating 10 nM of the DNMT1 enzyme with 1 μM of hemimethylated DNA and 5.328 μM of [³H]AdoMet in the presence of 5.28 μM of folded synthetic RNA oligos. The reaction was done for 15 minutes and radioactivity was counted. [³H]AdoMet incorporation, initial velocity curve and Kᵢ were calculated as described in Example 2.
FIGS. 7C and 7D are representative plots of the inhibitory activity of 5p-5 and 3p-5 at increasing concentrations.
The source holds these as a separate data set.

For series [7], the target named is T1, DNMT1 full-length. Kind of series: inhibition; mixed inhibition vs AdoMet. The note with it: tags: baculovirus Sf9. The procedure: For determination of the inhibition pattern and Kᵢ of asCEBPα-2 versus hemimethylated DNA substrate, 20 nM of the DNMT1 enzyme was incubated with 1.328, 0.884, 0.59, 0.394, 0.262, 0.1748 and 0.1168 μM (concentration calculated in terms of hemimethylated CpG) of the 36-bp length hemimethylated DNA substrate with the sequence of (CMeGG•CCG)₁₂ and 5.328 μM of [³H]AdoMet (PerkinElmer, Waltham, Mass.) in the presence of 0, 0.25, 0.5, 1, 2 and 4 μM folded asCEBPα-2 inhibitor RNA in 1×DNMT1 reaction buffer (New England Biolabs, Ipswich, Mass.). The reaction was performed at 37° C. for 30 minutes and DNMT1 enzyme was quenched by flash freezing the reaction mix in a dry ice-methanol bath. The reaction was split into two halves and spotted onto DE81 Whatman® 3658-325 ion exchange filter papers (GE Healthcare Life Sciences, Piscataway, N.J.). The Ki and velocity plots were calculated according to Bacolla, et al., J. Biol. Chem., 274:33011-33019 (1999).
For determination of the inhibition patterns of various test RNAs and Kᵢ for asCEBPα-2 versus AdoMet, reactions were carried out at similar conditions as those described above. […] The nanomolar [³H]CH₃ transferred to hemimethylated DNA substrate was calculated in the same way as in the competitive experiment versus hemimethylated DNA substrate, except that the nanomolar concentration obtained was multiplied by an coefficient of 19.5. […]

Series [8] deals with T2, GST-DNMT1 fragment 4. The series is described as follows: pulldown; lower than HPE variant. The following applies: tags: N-terminal GST (pGEX-5x-1); label: 5'-33P in pull-down; stem-loop.
From the text: as §1, §2

The mark [9] stands for this setting: label: 5'-33P in pull-down, stem-loop.

T1 sequence (P26358 whole entry): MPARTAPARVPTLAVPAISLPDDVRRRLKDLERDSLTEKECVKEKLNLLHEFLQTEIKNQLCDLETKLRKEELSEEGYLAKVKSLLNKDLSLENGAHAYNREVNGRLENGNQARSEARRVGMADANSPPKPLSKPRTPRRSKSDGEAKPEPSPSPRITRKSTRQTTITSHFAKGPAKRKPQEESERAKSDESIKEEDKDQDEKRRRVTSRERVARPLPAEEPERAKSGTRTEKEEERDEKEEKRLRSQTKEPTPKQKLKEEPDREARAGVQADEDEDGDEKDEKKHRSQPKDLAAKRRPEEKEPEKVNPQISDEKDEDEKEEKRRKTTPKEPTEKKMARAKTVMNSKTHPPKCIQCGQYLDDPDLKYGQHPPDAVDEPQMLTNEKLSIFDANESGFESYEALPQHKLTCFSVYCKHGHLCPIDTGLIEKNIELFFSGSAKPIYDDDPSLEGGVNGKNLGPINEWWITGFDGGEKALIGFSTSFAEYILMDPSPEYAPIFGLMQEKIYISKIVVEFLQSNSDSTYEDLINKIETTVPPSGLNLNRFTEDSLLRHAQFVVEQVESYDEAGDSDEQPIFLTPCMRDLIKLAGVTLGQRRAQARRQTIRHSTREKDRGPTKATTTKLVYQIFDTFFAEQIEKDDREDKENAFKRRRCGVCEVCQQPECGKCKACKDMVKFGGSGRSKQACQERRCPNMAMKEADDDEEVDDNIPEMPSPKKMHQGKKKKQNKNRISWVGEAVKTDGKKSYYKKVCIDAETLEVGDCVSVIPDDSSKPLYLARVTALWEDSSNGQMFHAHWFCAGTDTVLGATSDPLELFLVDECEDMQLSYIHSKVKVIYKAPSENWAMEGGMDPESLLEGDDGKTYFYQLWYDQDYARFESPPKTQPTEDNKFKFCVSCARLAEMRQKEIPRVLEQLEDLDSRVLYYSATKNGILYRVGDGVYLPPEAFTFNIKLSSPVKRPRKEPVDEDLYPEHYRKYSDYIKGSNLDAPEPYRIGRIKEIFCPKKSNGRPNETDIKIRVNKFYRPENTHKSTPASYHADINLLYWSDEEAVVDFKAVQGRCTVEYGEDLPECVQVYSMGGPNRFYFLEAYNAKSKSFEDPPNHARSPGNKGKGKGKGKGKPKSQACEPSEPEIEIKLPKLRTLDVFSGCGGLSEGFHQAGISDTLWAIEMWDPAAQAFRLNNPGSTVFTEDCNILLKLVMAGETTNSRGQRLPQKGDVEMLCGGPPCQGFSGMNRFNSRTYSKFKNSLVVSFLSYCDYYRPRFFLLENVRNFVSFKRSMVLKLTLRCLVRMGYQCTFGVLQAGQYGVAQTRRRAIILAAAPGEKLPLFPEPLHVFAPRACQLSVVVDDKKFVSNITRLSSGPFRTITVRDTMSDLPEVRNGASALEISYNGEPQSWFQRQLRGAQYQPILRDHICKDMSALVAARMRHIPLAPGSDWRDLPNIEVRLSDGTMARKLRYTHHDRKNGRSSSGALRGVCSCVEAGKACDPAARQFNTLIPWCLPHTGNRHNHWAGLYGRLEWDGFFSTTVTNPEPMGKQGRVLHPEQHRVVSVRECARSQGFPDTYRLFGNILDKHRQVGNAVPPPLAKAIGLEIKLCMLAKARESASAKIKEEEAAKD

B1: miR-9-3p (ssRNA)
RNA: AUAAAGCUAGAUAACCGAAAGU
For orientation: Ki means the dissociation constant of the complex between target and ligand, obtained from inhibition or displacement. The molecule B1 registered a Ki in series [1] of 1600 nM.

B2: miR-92a-1-5p (ssRNA)
RNA: AGGUUGGGAUCGGUUGCAAUGCU
In the case of B2, in series [1], the Ki was found to be 476 nM.

B3: miR-155-5p (ssRNA)
RNA: UUAAUGCUAAUCGUGAUAGGGGU
In series [2], B3 gave an inhibition constant (Ki) of 27.9 nM.

B4: asCEBPα-2HPE (ssRNA)
RNA: GACAGUGGAGAGGGGCGGAGCGG
Turning to B4, in series [1] (label: 5'-33P in pull-down, predicted to lack stem-loop), the inhibitory constant (Ki) is 135 nM. For the same molecule, in series [3], the binding result is given as “binds”.

B5: miR-21-5p (ssRNA)
RNA: UAGCUUAUCAGACUGAUGUUGA
For the molecule B5, the affinity in series [1] corresponds to a Ki of 1290 nM.

B6: miR-20a-5p (ssRNA)
RNA: UAAAGUGCUUAUAGUGCAGGUAG
As to B6, the Ki in series [1] was found to be 560 nM.

B7: miR-373-5p (ssRNA)
RNA: ACUCAAAAUGGGGGCGCUUUCC
Molecule B7 registered a Ki in series [1] of 298 nM.

B8: miR-146a-5p (ssRNA)
RNA: UGAGAACUGAAUUCCAUGGGUU
B8 had a Ki in series [1] of 1030 nM.

B9: miR-16-5p (ssRNA)
RNA: UAGCAGCACGUAAAUAUUGGCG
With B9, in series [1], the Ki amounted to 463 nM.

B10: asCEBPα-1HPE (ssRNA)
RNA: CCGGGAAGCAGGCGGCGUCAGGC
In series [1] (label: 5'-33P in pull-down), B10 showed an inhibition constant Ki of 918 nM. In addition, in series [4], the binding result was “binds”.

B11: asCEBPα-1 (ssRNA)
RNA: CCGGGACGCAGGCGGCGUCAGGC
In series [1] (setting [9]), B11 gave a Ki of 2000 nM. For the same molecule, in series [5], the binding result is recorded as “binds”.

B12: miR-127-3p (ssRNA)
RNA: UCGGAUCCGUCUGAGCUUGGCU
In the case of B12, in series [1], the affinity, expressed as Ki, was 269 nM.

B13: miR-92a-3p (ssRNA)
RNA: UAUUGCACUUGUCCCGGCCUGU
In the case of B13, the affinity in series [1], expressed as Ki, was 1650 nM.

B14: miR-19b-3p (ssRNA)
RNA: UGUGCAAAUCCAUGCAAAACUGA
Molecule B14 displayed an inhibition constant (Ki) in series [1] of 3320 nM.

B15: 5p-5 (ssRNA)
RNA: UCGUGAUAGGGGU
Consider B15, for which the Ki in series [6] worked out at 124 nM.

B16: miR-17-5p (ssRNA)
RNA: CAAAGUGCUUACAGUGCAGGUAG
As for B16, the results for the Ki in series [1] and in series [7] were 317 nM and 385 nM, respectively.

B17: miR-9-5p (ssRNA)
RNA: UCUUUGGUUAUCUAGCUGUAUGA
In turn, B17 came in with a Ki in series [1] of 493 nM.

B18: miR-145-5p (ssRNA)
RNA: GUCCAGUUUUCCCAGGAAUCCCU
As for B18, affinity in series [1] was put at a Ki of 2460 nM.

B19: asCEBPα-2 (ssRNA)
RNA: GCCAGUGGCGAGGGGCGGCGCGG
With B19, the Ki in series [1] (setting [9]) turned out to be 434 nM; in series [7] (setting [9]) it was 91.7 nM. The binding result in series [8] was “binds”.
